Assay results taken from patent US20260167721A1 (ABLEXIS, published 2026).

B1: CD3 × CD33-BspAb69 (bispecific antibody)
chain 1: EVQLVESGGGLVKPGGSLRLSCAASGFTFSYYSMNWVRQAPGKCLEWVSSISRSTTYIYYADSVKGRFTISRDNAKNSLYLQMNSLRAEDTAVYYCARDGKGAIFLDYWGQGTLVTVSSGGGGSGGGGSGGGGSGGGGSSYELTQPPSVSVSPGQTARITCSGDALPKKYAYWYQQKSGQAPVLVIYEDSKRPSGIPERFSGSSSGTMATLTISGAQVEDEADYYCYSTDSSGNHRVFGCGTKLTVLDKTHTCPPCPAPEFEGGPSVFLFPPKPKDTLMISRTPEVTCVVVDVSHEDPEVKFNWYVDGVEVHNAKTKPREEQYNSTYRVVSVLTVLHQDWLNGKEYKCKVSNKALPASIEKTISKAKGQPREPQVYTLPPCREEMTKNQVSLWCLVKGFYPSDIAVEWESNGQPENNYKTTPPVLDSDGSFFLYSKLTVDKSRWQQGNVFSCSVMHEALHNHYTQKSLSLSPGK
chain 2: EVQLVQSGAEVKKPGSSVKVSCKASGYTITDSNIHWVRQAPGQSLEWIGYIYPYNGGTDYNQKFKNRATLTVDNPTNTAYMELSSLRSEDTAFYYCVNGNPWLAYWGQGTLVTVSSASTKGPSVFPLAPSSKSTSGGTAALGCLVKDYFPEPVTVSWNSGALTSGVHTFPAVLQSSGLYSLSSVVTVPSSSLGTQTYICNVNHKPSNTKVDKRVEPKSCDKTHTCPPCPAPEFEGGPSVFLFPPKPKDTLMISRTPEVTCVVVDVSHEDPEVKFNWYVDGVEVHNAKTKPREEQYNSTYRVVSVLTVLHQDWLNGKEYKCKVSNKALPASIEKTISKAKGQPREPQVCTLPPSREEMTKNQVSLSCAVKGFYPSDIAVEWESNGQPENNYKTTPPVLDSDGSFFLVSKLTVDKSRWQQGNVFSCSVMHEALHNRFTQKSLSLSPGK
chain 3: DIQLTQSPSTLSASVGDRVTITCRASESLDNYGIRFLTWFQQKPGKAPKLLMYAASNQGSGVPSRFSGSGSGTEFTLTISSLQPDDFATYYCQQTKEVPWSFGQGTKVEVKRTVAAPSVFIFPPSDEQLKSGTASVVCLLNNFYPREAKVQWKVDNALQSGNSQESVTEQDSKDSTYSLSSTLTLSKADYEKHKVYACEVTHQGLSSPVTKSFNRGEC
B2: ABL-CD3-57 (antibody, V domains shown)
VH: EVQLVESGGGLVKPGGSLRLSCAASGFTFSSYTMNWVRQAPGKGLEWVSSISTSSRYIYYTDSVKGRFTISRDDAKNSLYLQMNSLRAEDTAVYYCTRNWGYDVFDIWGQGTMVIVSS
VL: QPVLTQPSSHSASSGASVRLTCMLSSGFSVGDFWIRWYQQKPGNPPRYLLYYHSDSNKGQGSGVPSRFSGSNDASANAGILRISGLQPEDEADYYCGTWHSNSKTQVFGGGTKLTVL
notes: Chimeric hybridoma mAb: human V, CH1, upper hinge; mouse middle hinge, CH2, CH3
B3: ABL-CD3-34 (antibody, V domains shown)
VH: EVHLVESGGGLVKPGGSLRLSCAASGFTFSRYSMNWVRQAPGKGLEWVSSISRSSSYIYYADSVKGRFTISRDNAKNSLYLQMNSLRAEDTAVYYCAREPRTLGMDYWGQGILVTVSS
VL: NFMLTQPHSVSESPGKTVTISCTRSSGSIASNYVQWYQQRPGSSPTTVIYEDNQRPSGVPDRFSGSIDSSSNSASLTISGLKTEDEADYYCQSYDSSNRVFGGGTKLTVL
notes: as for B2
B4: ABL-CD3-60 (antibody, V domains shown)
VH: EVQLVESGGGLVKPGGSLRLSCAASGFTFSIYSMNWVRQAPGKGLEWVSSISSGSSYIYYADSVKGRFTISRDNAKSSLFLQMNSLRAEDTAVYYCAREKRELLFDYWGQGTLVTVSS
VL: NFMLTQPHSVSESPGKTVTISCTRSSGSIASNYVQWYQQRPGSSPTTVIYEDNQRPSGVPDRFSGSIDRSSNSASLTISGLKTEDEADYYCQSYDSSNRVFGGGTKLTVL
notes: as for B2
B5: ABL-CD3-46 (antibody, V domains shown)
VH: EVQLVESGGGLVKPGGSLRLSCSASGFTFSTYTMNWVRQAPGKGLDWVSSISKSSTYIYYADSVKGRFTISRDNAKNSLYLQMNSLRAEDTAVYYCARERRTLAFDIWGQGTMVTVSS
VL: NFMLTQPHSVSESPGKTVTISCTRSSGSIASNYVQWYQQRPGSSPTTVIYEDNQRPSGVPDRFSGSIDSSSNSASLTISGLKTEDEADYYCQCYDRSNRVFGGGTKLTVL
notes: as for B2
B6: ABL-CD3-63 (antibody, V domains shown)
VH: QVQLQESGPGLVKPSETLSLTCTVSGGSISSYYWSWIRQPAGKGLEWIGRIYTSGSTKYNPSLKSRVTMSVDTSKNQFSLKLISVTAADTAVYFCARERIRDLYFDYWGQGTLVTVSS
VL: NFMLTQPHSVSESPGKTVTISCTRTSGSIASNYVQWYQQRPGSSPTTVIYEDNQRPSGVPDRFSGSIDSSSNSASLTISGLKTEDEAAYYCQSYDRSNRVFGGGTKLTVL
notes: as for B2
B7: ABL-CD3-49 (antibody, V domains shown)
VH: EVQLVESGGGLVKPGGSLRLSCSASGFTFSTYTMNWVRQAPGKGLEWVSSISKSSSYIYYTDSVKGRFTISRDNAKNSLYLQMNSLRAEDTAVYYCARERRTLAFDIWGQGTMVTVSS
VL: NFMLTQPHSVSESPGKTVTISCTRSSGSIASNYVQWYQQRPGSSPTTVIYEDNQRSSGVPDRFSGSIDSSSNSASLTISGLKTEDEADYYCQCYDRSNRVFGGGTKLTVL
notes: as for B2
B8: ABL-CD3-59 (antibody, V domains shown)
VH: EVQLVESGGGLVKPGGSLRLSCTASGFTLSSYSMNWVRQAPGKGLEWVSSLSRSSNYIYYAVSVKGRFTISRDNAKNSLYLQMNSLRAEDTAVYYCARERWELLYFDYWGQGTLVTVSS
VL: NFMLTQPHSVSESPGKTVTISCTRSSGSIASNYVQWYQQRPGSSPTTVIYEDNQRPSGVPDRFSGSIDSSSNSASLTISGLQTEDEADYYCQSYDNSIRVFGGGTKLTVL
notes: as for B2
B9: ABL-CD3-41 (antibody, V domains shown)
VH: EVQLVESGGGLVKPGGSLRLSCAASGFTFSSYSMNWVRQAPGKGLEWVSSVNSRGSYIYYADSVKGRFTISRDNAKDSLYLQMNSLRADDTAVYYCARDRRELLLDYWGQGTLVTVSS
VL: SYELTQPPSVSVSPGQTARITCSGDALPKKYAYWYQQKSGQAPVLVIYEDSKRPSGIPERFSGSSSGTMATLTISGAQVEDEADYYCYSTDSSGNHCWVFGGGTKLTVL
notes: as for B2
B10: ABL-CD3-43 (antibody, V domains shown)
VH: EVQLVQSGAEVKKPGESLKISCKGSEYSFTTYWIAWVRQMPGKGLEWMGIIYPGDSDTTYSPSFQGQVTISADKSISIAFLQWSSLKASDTAMYYCARQGELDAFDIWGQGTMVTVSS
VL: QSALTQPASVSGSPGQSITISCTGTSSDVGSYNLVSWYQQHPGKAPKLMIYEDIRRPSGVSNRFSASKSGDTASLTISGLQAEDEADYYCCSYAGSTTFAIFGGGTKLTVL
notes: as for B2

Experiments:
[1] = molecular target: T1, human CD3 (TCR/CD3 complex on the cell surface) (human, UniProt P07766 23-207; P04234 22-171; P09693 23-182); assay: flow cytometry, Jurkat WT gMFI over Jurkat KO gMFI, 1 ug/mL
T1 construct: whole, on cells; Native CD3 on human Pan-T cells or Jurkat wild-type cells; also called CD3 on Pan-T cells; CD3 on Jurkat WT cells

[2] = molecular target: T1, human CD3 (TCR/CD3 complex on the cell …); assay: flow cytometry, Jurkat WT cells, 1 ug/mL
[3] = molecular target: T1, human CD3 (TCR/CD3 complex on the cell …); assay: flow cytometry, Pan-T cells, 1 ug/mL
[4] = molecular target: T1, human CD3 (TCR/CD3 complex on the cell …); assay: flow cytometry, Pan-T cells, 10 ug/mL
[5] = molecular target: T1, human CD3 (TCR/CD3 complex on the cell …); assay: flow cytometry, Jurkat WT cells, 10 ug/mL
[6] = molecular target: T1, human CD3 (TCR/CD3 complex on the cell …); assay: flow cytometry, Jurkat WT gMFI over Jurkat KO gMFI, 10 ug/mL
[7] = molecular target: T2, recombinant human CD3 epsilon/gamma heterodimer (human, UniProt P07766 23-126; P09693 23-116); assay: Octet BLI, mAb on FAB2G sensor, hCD3 E/G 200-50 nM; R^2 0.99
T2 construct: Recombinant protein in solution (200-50 nM) in the Octet assay; also called hCD3 E/G

[8] = molecular target: T3, recombinant human CD3 epsilon/delta heterodimer (human, UniProt P07766 23-126; P04234 22-105); assay: Octet BLI, mAb on FAB2G sensor, hCD3 E/D 200-50 nM; R^2 0.98;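 note: antibodies purified from hybridoma supernatants, measured by Octet binding to recombinant human CD3 protein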
T3 construct: Recombinant protein in solution (200-50 nM) in the Octet assay; also called hCD3 E/D; human CD3E/D

[9] = molecular target: T2, recombinant human CD3 epsilon/gamma …; assay: Octet BLI, mAb on FAB2G sensor, hCD3 E/G 200-50 nM; R^2 0.98
[10] = molecular target: T3, recombinant human CD3 epsilon/delta …; assay: Octet BLI, mAb on FAB2G sensor, hCD3 E/D 200-50 nM; R^2 0.99
[11] = molecular target: T3, recombinant human CD3 epsilon/delta …; assay: Octet BLI, mAb on FAB2G sensor, hCD3 E/D 200-50 nM; R^2 1.00

T3 sequence (P07766 23-126, stated change not applied, chain 1 of 2): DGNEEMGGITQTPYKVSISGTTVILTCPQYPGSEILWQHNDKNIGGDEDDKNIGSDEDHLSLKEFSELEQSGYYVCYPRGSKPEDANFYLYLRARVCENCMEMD
T3 sequence (P04234 22-105, stated change not applied, chain 2 of 2): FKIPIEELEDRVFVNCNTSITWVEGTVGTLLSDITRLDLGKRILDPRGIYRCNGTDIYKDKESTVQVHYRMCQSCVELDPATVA
T2 sequence (P07766 23-126, chain 1 of 2): as the sequence (P07766 23-126, stated change not applied, chain 1 of 2) above
T2 sequence (P09693 23-116, chain 2 of 2): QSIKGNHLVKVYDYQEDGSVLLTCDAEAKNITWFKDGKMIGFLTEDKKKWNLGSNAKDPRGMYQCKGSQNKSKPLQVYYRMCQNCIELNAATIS
T1 sequence (P07766 23-207, chain 1 of 3): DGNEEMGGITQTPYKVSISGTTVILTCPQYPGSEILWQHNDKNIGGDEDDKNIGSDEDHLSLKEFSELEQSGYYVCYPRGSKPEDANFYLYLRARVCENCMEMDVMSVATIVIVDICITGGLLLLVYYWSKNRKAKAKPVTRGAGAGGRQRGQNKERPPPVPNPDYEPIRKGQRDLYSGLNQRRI
T1 sequence (P04234 22-171, chain 2 of 3): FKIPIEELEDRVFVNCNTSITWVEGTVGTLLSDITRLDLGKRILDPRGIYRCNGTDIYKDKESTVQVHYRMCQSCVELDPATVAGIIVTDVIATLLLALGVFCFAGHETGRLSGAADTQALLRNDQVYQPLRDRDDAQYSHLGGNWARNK
T1 sequence (P09693 23-182, chain 3 of 3): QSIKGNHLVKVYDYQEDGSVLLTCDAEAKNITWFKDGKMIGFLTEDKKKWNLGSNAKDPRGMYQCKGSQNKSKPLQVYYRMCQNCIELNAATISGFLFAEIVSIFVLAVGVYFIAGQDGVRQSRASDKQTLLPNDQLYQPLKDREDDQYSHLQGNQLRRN

Row | Binder | Kd [7] [nM] | Response [7] | koff [7] [s⁻¹] | kon [7] [M⁻¹ s⁻¹] | Kd [9] [nM] | Response [9] | koff [9] [s⁻¹] | kon [9] [M⁻¹ s⁻¹] | Kd [10] [nM] | Response [10] | koff [10] [s⁻¹] | kon [10] [M⁻¹ s⁻¹] | also measured
1 | B1 | – | – | – | – | – | – | – | – | – | – | – | – | Jurkat WT/KO (Fold) [1]: 6.3 fold; gMFI [2]: 16500 gMFI; % Positive [3]: 99.7%; gMFI [3]: 95300 gMFI; % Positive [4]: 99.8%; gMFI [4]: 281000 gMFI; gMFI [5]: 25800 gMFI; Jurkat WT/KO (Fold) [6]: 8.7 fold
2 | B2 | 3.97 | 0.54 | 0.00026 | 65400 | – | – | – | – | – | – | – | – | Kd [8]: 4.29 nM; Response [8]: 0.49; koff [8]: 0.000277 s⁻¹; kon [8]: 64700 M⁻¹ s⁻¹
3 | B3 | – | – | – | – | 9.82 | 0.89 | 0.00196 | 199000 | – | – | – | – | Kd [8]: 9.01 nM; Response [8]: 0.93; koff [8]: 0.00211 s⁻¹; kon [8]: 234000 M⁻¹ s⁻¹
4 | B4 | – | – | – | – | 90.7 | 0.07 | 0.0583 | 642000 | 231 | 0.1 | 0.0962 | 417000 | –
5 | B5 | – | – | – | – | 16.3 | 0.88 | 0.00333 | 204000 | 9.48 | 1.02 | 0.00171 | 180000 | –
6 | B6 | – | – | – | – | 90.4 | 0.34 | 0.0182 | 202000 | 11.5 | 0.89 | 0.00145 | 127000 | –
7 | B7 | – | – | – | – | 11.4 | 0.82 | 0.00253 | 223000 | 6.52 | 0.93 | 0.00131 | 200000 | –
8 | B8 | 43.3 | 0.58 | 0.00487 | 113000 | – | – | – | – | – | – | – | – | Kd [11]: 12.7 nM; Response [11]: 0.81; koff [11]: 0.00105 s⁻¹; kon [11]: 83100 M⁻¹ s⁻¹
9 | B9 | 295 | 0.1 | 0.25 | 846000 | – | – | – | – | – | – | – | – | Kd [11]: 85 nM; Response [11]: 0.34; koff [11]: 0.0395 s⁻¹; kon [11]: 464000 M⁻¹ s⁻¹
10 | B10 | – | – | – | – | 6.94 | 0.62 | 0.00104 | 150000 | 6.2 | 0.62 | 0.000754 | 122000 | –
